Residue numbers refer to the chain shown, from its start.
B1: Recombinant SMYD3 protein (prepared in Sf9 cells, Baculovirus system) (protein)
chain: MEPLKVEKFATANRGNGLRAVTPLRPGELLFRSDPLAYTVCKGSRGVVCDRCLLGKEKLMRCSQCRVAKYCSAKCQKKAWPDHKRECKCLKSCKPRYPPDSVRLLGRVVFKLMDGAPSESEKLYSFYDLESNINKLTEDKKEGLRQLVMTFQHFMREEIQDASQLPPAFDLFEAFAKVICNSFTICNAEMQEVGVGLYPSISLLNHSCDPNCSIVFNGPHLLLRAVRDIEVGEELTICYLDMLMTSEERRKQLRDQYCFECDCFRCQTQDKDADMLTGDEQVWKEVQESLKKIEELKAHWKWEQVLAMCQAIISSNSERLPDINIYQLKVLDCAMDACINLGLLEEALFYGTRTMEPYRIFFPGSHPVRGVQVMKVGKLQLHQGMFPQAMKNLRLAFDIMRVTHGREHSLIEDLILLLEECDANIRAS
B2: Flag-tagged wild-type SMYD3 immunoprecipitated from 293T cells (p3XFLAG-CMV-SMYD3) (protein)
chain: B1 chain

Experiments:
[1] = target: T1, RB1 substrate domain mutant K896A
T1 chain: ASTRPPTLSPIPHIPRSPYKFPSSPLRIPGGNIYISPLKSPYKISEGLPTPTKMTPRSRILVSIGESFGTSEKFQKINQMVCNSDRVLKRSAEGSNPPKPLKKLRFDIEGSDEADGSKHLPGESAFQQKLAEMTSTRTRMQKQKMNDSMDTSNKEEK

[2] = target: T2, Recombinant C-terminal region of RB1 (codons 769-921)
T2 chain: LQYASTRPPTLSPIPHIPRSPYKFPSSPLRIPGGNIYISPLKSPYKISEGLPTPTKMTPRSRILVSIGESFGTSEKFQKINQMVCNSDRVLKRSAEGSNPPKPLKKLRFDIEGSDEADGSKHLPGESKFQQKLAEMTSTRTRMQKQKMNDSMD

[3] = target: T3, RB1 substrate domain mutant K889A
T3 chain: T1 chain with K118A, A125K

[4] = target: T4, RB1 substrate domain mutant K824A
T4 chain: T1 chain with K53A, A125K

RB1 mutant K814A = target: T5, RB1 mutant K814A
T5 chain: T1 chain with K43A, A125K

RB1 mutant K791A = target: T6, RB1 mutant K791A
T6 chain: T1 chain with K20A, A125K

[5] = target: T7, RB1 double mutant K814A/K824A
T7 chain: T1 chain with K43A, K53A, A125K

[6] = target: T8, RB1 double mutant K791A/K824A
T8 chain: T1 chain with K20A, K53A, A125K

[7] = target: T9, full-length recombinant RB protein (3108, QED Bioscience)
T9 chain: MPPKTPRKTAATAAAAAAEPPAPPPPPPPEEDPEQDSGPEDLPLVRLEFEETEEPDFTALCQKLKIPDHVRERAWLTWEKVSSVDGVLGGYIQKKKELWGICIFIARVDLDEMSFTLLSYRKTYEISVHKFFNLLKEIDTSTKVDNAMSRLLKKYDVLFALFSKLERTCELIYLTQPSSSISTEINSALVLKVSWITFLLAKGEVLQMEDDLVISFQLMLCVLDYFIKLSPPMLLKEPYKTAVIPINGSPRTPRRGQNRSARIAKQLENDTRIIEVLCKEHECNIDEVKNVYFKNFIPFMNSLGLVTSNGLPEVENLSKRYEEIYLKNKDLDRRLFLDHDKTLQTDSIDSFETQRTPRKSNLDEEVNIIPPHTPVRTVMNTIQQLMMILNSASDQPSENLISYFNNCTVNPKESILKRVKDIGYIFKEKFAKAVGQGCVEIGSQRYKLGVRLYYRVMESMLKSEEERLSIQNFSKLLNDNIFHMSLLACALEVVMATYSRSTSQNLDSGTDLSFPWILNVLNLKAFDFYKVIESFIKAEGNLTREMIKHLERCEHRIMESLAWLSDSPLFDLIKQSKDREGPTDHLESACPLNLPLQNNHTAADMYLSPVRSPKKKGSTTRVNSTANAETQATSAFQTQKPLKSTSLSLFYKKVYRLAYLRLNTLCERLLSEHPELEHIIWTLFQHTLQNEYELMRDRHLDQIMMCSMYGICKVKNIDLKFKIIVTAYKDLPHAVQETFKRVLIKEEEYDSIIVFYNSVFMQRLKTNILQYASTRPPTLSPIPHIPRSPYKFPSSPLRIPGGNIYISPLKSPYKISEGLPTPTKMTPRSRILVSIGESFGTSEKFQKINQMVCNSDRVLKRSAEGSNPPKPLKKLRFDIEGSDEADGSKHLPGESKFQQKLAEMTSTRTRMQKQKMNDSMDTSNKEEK

[8] = target: Recombinant full-length GST-p53 (wild-type p53), P04637
Chain of Recombinant full-length GST-p53 (wild-type p53), P04637 (P04637 whole entry, looked up): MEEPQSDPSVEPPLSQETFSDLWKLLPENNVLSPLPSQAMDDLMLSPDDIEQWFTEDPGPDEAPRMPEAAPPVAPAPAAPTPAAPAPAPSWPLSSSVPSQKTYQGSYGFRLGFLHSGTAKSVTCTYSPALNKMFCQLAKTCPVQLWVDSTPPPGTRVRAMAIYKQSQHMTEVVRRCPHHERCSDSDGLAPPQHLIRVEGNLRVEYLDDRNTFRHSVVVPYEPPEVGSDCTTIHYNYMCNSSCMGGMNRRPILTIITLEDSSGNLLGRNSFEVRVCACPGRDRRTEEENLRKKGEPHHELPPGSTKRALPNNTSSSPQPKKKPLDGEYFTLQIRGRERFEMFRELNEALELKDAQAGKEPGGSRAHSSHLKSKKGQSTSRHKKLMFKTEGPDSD

Row | Protein | methylation by SMYD3 (autoradiography, liquid scintillation counter) [1] | incorporation of 3H-labeled methyl donor (liquid scintillation counter) [2] | methylation by SMYD3 (autoradiography, liquid scintillation counter) [3] | methylation by SMYD3 (autoradiography, liquid scintillation counter) [4] | methylation by SMYD3 (fluorogram, liquid scintillation counter) (RB1 mutant K814A) | methylation by SMYD3 (fluorogram, liquid scintillation counter) (RB1 mutant K791A) | methylation by SMYD3 (fluorogram, liquid scintillation counter) [5] | methylation by SMYD3 (fluorogram, liquid scintillation counter) [6] | methyltransferase (MTase) activity (recombinant histone H3) | methylation of substrate (in vitro MTase assay with 3H-labeled SAM, PAGE and autoradiography) [2] | methylation of substrate (in vitro MTase assay) [7] | methylation of substrate (in vitro MTase assay with 3H-labeled SAM, PAGE and autoradiography) [8] | methylation of substrate (in vitro MTase assay with 3H-labeled SAM, PAGE and autoradiography) (recombinant histone H3)
1 | B1 | the K889A and K896A mutants were methylated at similar levels by SMYD3 | four to six fold higher amount of 3H-labeled methyl donor in the presence of SMYD3 than the absence of SMYD3 | the K889A and K896A mutants were methylated at similar levels by SMYD3 | methylation of K824A was significantly decreased | K791A and K814A, showed similar levels of methylation to wild type-RB1 | K791A and K814A, showed similar levels of methylation to wild type-RB1 | showed equivalent levels of methylation to the K824A protein | showed equivalent levels of methylation to the K824A protein | a dose-dependent increase of MTase activity on both substrates |  |  |  | 
2 | B2 |  |  |  |  |  |  |  |  |  | bands corresponding to methylated RB1 were also detected | SMYD3 methylated full length of RB1 | no bands corresponding to methylated p53 were detected | bands corresponding methylated histone H3
